Experimental data: paper PMC9007743

Target: rhodopsin (bovine (endogenous in bovine retina)) (UniProt P02699)
Sequence (P02699 whole entry): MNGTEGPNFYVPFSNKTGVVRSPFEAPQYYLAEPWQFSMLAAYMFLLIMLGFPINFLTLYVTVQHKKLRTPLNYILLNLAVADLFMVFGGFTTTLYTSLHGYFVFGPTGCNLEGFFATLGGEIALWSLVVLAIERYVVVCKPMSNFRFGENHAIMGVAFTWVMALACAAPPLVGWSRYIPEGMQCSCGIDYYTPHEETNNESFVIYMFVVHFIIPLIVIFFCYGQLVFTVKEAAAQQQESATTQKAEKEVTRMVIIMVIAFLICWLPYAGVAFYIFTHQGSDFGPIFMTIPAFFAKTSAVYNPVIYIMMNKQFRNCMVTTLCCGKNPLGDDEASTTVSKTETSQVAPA

transducin, heterotrimeric G protein (Gt), sequence (P04695 whole entry): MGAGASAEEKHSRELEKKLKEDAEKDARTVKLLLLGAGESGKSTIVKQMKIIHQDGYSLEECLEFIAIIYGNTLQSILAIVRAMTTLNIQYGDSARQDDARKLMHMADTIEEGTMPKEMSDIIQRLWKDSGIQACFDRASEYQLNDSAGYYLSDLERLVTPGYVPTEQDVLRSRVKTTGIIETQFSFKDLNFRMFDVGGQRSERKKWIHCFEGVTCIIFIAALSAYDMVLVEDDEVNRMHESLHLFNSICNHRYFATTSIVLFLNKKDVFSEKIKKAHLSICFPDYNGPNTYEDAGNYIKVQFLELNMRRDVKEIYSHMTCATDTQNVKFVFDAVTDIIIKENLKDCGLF
transducin, heterotrimeric G protein (Gt), sequence (P62871 whole entry): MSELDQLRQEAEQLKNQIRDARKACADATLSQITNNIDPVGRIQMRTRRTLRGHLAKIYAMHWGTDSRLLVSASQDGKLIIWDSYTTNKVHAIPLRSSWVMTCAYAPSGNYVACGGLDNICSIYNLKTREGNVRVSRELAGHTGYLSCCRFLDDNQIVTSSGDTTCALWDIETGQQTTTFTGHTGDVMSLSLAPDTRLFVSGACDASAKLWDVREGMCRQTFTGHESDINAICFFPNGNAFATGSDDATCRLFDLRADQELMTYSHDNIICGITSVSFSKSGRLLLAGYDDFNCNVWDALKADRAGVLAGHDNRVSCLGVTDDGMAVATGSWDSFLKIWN
transducin, heterotrimeric G protein (Gt), sequence (P02698 whole entry): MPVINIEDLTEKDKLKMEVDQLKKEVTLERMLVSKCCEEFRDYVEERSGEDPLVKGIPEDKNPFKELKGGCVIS

transducin, heterotrimeric G protein (Gt) (from UniProt P04695 1-350; P62871 1-340; P02698 1-74) (complex)
ratio Gt•GDP:Gt by native MS with 90 μM compound 1, ROS membrane present, from dark (1.2) to 15 s of illumination (0.6) (ratio Gt•GDP:Gt): 1.2
ratio Gt•GDP:Gt by native MS with 90 μM compound 6, ROS membrane present, from dark (2.0) to 15 s of illumination (0.8) (ratio Gt•GDP:Gt): 2
ratio Gt•GDP:Gt by native MS, control without compound, ROS membrane present, from dark (4.1) to 15 s of illumination (1.2) (ratio Gt•GDP:Gt): 4.1
